Test results: the supplement of paper PMC6755084

System: F1*sub RNA substrate (template-directed ligation)
Test: fraction ligated after 30 min (ligated reads / total reads); higher = more ligase activity; sequences stand for … in GAGACCGCAACTGAAAAGTTGT…AGTTCTGCACGTAGAAGCAAAAGGC
Conditions: 42 °C
Outline: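 Oligo-pool templates underwent PCR amplification, T7 transcription and gel purification to yield ribozyme variants. Gel-separated ligated and unligated bands were converted to complementary DNA with barcoded primers and sequenced on a MiSeq, keeping core bases of quality ≥20. The ratio of ligated reads to total reads gave the fraction ligated for every variant.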

Sequence	fraction ligated
TATACTTGTCGTAAGAACTTTGGATGGGTTG [3d910]	0.724
TATCACTTGTCGTAAGACACTTGGATGGGTTA [2d281]	0.756
TATCACTTGGTAAGACATTTGGATGGGTTGA [3d1591]	0.832
TTCATTGTCGTAGACACTTTGGATGGGTTGA [3d323]	0.271
TACACTTGCGTAAGACCTTTGGATGGGTTGA [3d608]	0.0714
TATACTTGTCGTAGAACTTTGGATGGGTTGA [3d873]	0.831
TATCACTTGTCGTAAGACATTTGGTGGTTGA [3d2221]	0.0037
TATCACTTGTCGTAAGAACTTTGGAGGGTTGA [2d258]	0.0583
TTCATTGTCGTAAGACCTTTGGATGGGTTGA [3d327]	0.529
TTCACTTGTCGTAAGACACTTTGGAGGGTTG [3d503]	0.103
TATCACTTGTGTAAGCATTTGGATGGGTTGA [3d1756]	0.851
TATATTGTCGTAAGACACTTTGGATGGGTTA [3d775]	0.0168
TATACTTTCGTAAGACACTTTGATGGGTTGA [3d806]	0.105
TTCACTGTCGTAAGACACTTTGGAGGGTTGA [3d351]	0.327
TACACTTGTCGTAAACACTTTGGTGGGTTGA [3d677]	0.0298
TATCACTTGTCGTAAACTTTGGATGGGTTGA [3d1993]	0.804
TATCACTTGTCGTAAGACACTTGATGGGTTG [3d2243]	0.239
TTACTTGTCTAAGACACTTTGGATGGGTTGA [3d283]	0.147
TACACTTGTCGTAAGAACTTTGGATGGGTTA [3d698]	0.00405
TATACTTGTCGTAAGACATTTGATGGGTTGA [3d919]	0.735
TTCACTTGCTAAGACACTTTGGATGGGTTGA [3d372]	0.729

Sequence	fraction ligated
TATCATGTCGAAGACACTTTGGATGGGTTGA [3d1126]	0.792
TATCACTTGTCGAAGACCTTGGATGGGTTGA [3d1943]	0.768
TATCACTTGTCGTAAACACTTGATGGGTTGA [3d2082]	0.727
TATCACTTGTCGAGCACTTTGGATGGGTTGA [3d1904]	0.749
TAACTTGTCGTAAGACACTTTGGATGGGTTG [3d527]	0.153
TATCATTTCGTAAGACACTTTGGAGGGTTGA [3d1152]	0.042
ATACTTGTCGTAAGACACTTTGATGGGTTGA [3d61]	0.291
TATCACTTGTGTAAGCACTTTGGAGGGTTGA [3d1760]	0.121
TATCATTGTCGAAACACTTTGGATGGGTTGA [3d1202]	0.81
TATCACTTGTGTAGAACTTTGGATGGGTTGA [3d1734]	0.822
TACCTTTCGTAAGACACTTTGGATGGGTTGA [3d529]	0.435
TATCACTTGTCGAGACACTTTGGTGGGTTGA [3d1910]	0.0759
TTCACTTTCGTAAGACACTTGGATGGGTTGA [3d364]	0.13
TATCACTTGTCGTAGAACTTGGATGGGTTGA [3d2014]	0.845
TATCACTTCGTAGACACTTTGGATGGGTTGA [3d1314]	0.783
TATCACTTGTCGTAGACACTTTGATGGGTTG [3d2047]	0.754
TATCACTTGTCGTAGAACTTTGGATGGGTTG [3d2020]	0.854
TTCACTTCGTAAGACACTTTGGATGGGTTGA [3d337]	0.344
TATACTTGTCTAAGACACTTTGGATGGGTTG [3d856]	0.633
TATACTTGTCGTAAGCCTTTGGATGGGTTGA [3d894]	0.68
TATCATTGCGTAAGACACTTTGATGGGTTGA [3d1166]	0.681

Sequence	fraction ligated
TATCACTTGTCGTAGACACTTGGATGGGTTG [3d2041]	0.782
TATCACTGTCGTAAGACACTTTGATGGGTTA [3d1451]	0.351
TATCACTTGTCGTGACACTTTGGATGGGTTA [3d1991]	0.703
TATCACGTCTAAGACACTTTGGATGGGTTGA [3d1296]	0.772
TATCACTTGTCGTAACACTTTGGATGGTTGA [3d2000]	0.0413
TATCCTTGTCGTAAGACACTTTGGAGGTTGA [3d1114]	0.00283
TACACTTGTCGAAGACACTTTGGAGGGTTGA [3d655]	0.126
TATCCTTGCGAAGACACTTTGGATGGGTTGA [3d986]	0.806
TATCACTGTCGTAAGACACTTTGGTGGGTTG [3d1456]	0.343
TATCACTTGTCGTAAACCTTTGGATGGGTTG [3d2073]	0.793
TATCACTTTCGTAAGCACTTTGGTGGGTTGA [3d1534]	0.0496
TATCACTTGCGTAAGACACTTTGATGGGTTG [3d1693]	0.725
TATCACTTGTCGTAGCACTTTGGATGGGTTG [3d2012]	0.792
TATCACTTGTCGTAAGCATTTGGATGGTTGA [3d2125]	0.17
TATCACTTGCGTAAGACACTTGGATGGGTTG [3d1687]	0.796
TACACTTGTCGTAAGAACTTTGGTGGGTTGA [3d695]	0.0304
TATATTGTCGTAAGACACTTTGGTGGGTTGA [3d772]	0.0169
TATCACTGTCGAAGCACTTTGGATGGGTTGA [3d1374]	0.826
TATCACTTGTGTAAGACACTTTATGGGTTGA [3d1793]	0.0875
TATCACTTGTCGAAGACACTGGATGGGTTGA [3d1957]	0.767
TATACTTGTGTAAGACCTTTGGATGGGTTGA [3d834]	0.721

Sequence	fraction ligated
TATCTTGTCGTAAGACACTTTGGATGGGTTA [3d756]	0.722
TATCATTGTCGTAAGACATTTGGATGGGTTA [3d1267]	0.659
ATCACTTGTCGTAAGACACTTTGGATGTGGTTGA [s38]	0.693
TATCACTTGTCGAAGACACTTGGATGGGTTG [3d1963]	0.794
TATCCTTTCTAAGACACTTTGGATGGGTTGA [3d969]	0.796
TATCCTTGTGTAAGACACTTTGATGGGTTGA [3d1009]	0.799
TACACTTGTGTAAGACACTTTGGATGGGTTG [3d631]	0.145
TATCACTTGTCGTAAGAACTTTGATGGTTGA [3d2169]	0.0458
TACACTGTCGTAAGACACTTTGGAGGGTTGA [3d581]	0.292
TATCACTTGTCGTAGCCTTTGGATGGGTTGA [3d2004]	0.768
TACACTTGTCGTAAGACCTTTGGATGGGTTG [3d706]	0.659
TATACTGTCGTAAGACATTTGGATGGGTTGA [3d788]	0.756
ATCACTTGCGTAAGACATTTGGATGGGTTGA [3d148]	0.768
TATCCTTTCGTAAGACACTTTGATGGGTTGA [3d978]	0.77
TATACTTGTCGTAAGACACTTTGATGGGTTGA [2d84]	0.794
TATCACTGTCGTAAACACTTTGGATGGGTTA [3d1406]	0.761
TATACTTGTCGTAAGACATTTGGATGGTTGA [3d922]	0.0978
TATCATTGTCGTAAGACATTTGGATGGTTGA [3d1266]	0.567
TATCACTTGTCGTAAGACACGGATGGGTTGA [3d2231]	0.231
ATCACTTGTGTAAGACACTTTGGAGGGTTGA [3d167]	0.116
